Measured values published in patent publication US20180295858.

Molecular target: T1, H-AAPPA-NH2
T1 chain: AAPPA

B1: proline tolerant tripeptidyl peptidase TRI083 (protein)
chain: QEPSSCKGTLVFEGETFNVFQPDCLRTEYSVDGYTPSVKSGSRIGFGSFLNESASFADQALFEKHFNIPSQNFSVVLINGGTDLPQPPSDANDGEANLDAQTILTIAHPLPITEFITAGSPPYFPDPVEPAGTPNENEPYLQYYEFLLSKSNAEIPQVITNSYGDEEQTVPRSYAVRVCNLIGLLGLRGISVLHSSGDEGVGASCVATNSTTPQFNPIFPATCPYVTSVGGTVSFNPEVAWAGSSGGFSYYFSRPWYQQEAVGTYLEKYVSAETKKYYGPYVDFSGRGFPDVAAHSVSPDYPVFQGGELTPSGGTSAASPVVAAIVALLNDARLREGKPTLGFLNPLIYLHASKGFTDITSGQSEGCNGNNTQTGSPLPGAGFIAGAHWNATKGWDPTTGFGVPNLKKLLALVRF
hydrolysis of synthetic substrate AAPPA, LC-MS with label free quantification: over time is able to degrade the peptide AAPPA (FIG. 5) and generate the product AAP (FIG. 6)
